Patent US20230221313A1

Target: HIV-1 BG505.W6M.Env.C2 pseudovirus (Env) (HIV-1)
Assay: cell-based or functional assay

Substance	Fold change GFP-/GFP+ (droplet neutralization, NGS reads), Round 1
anti-HIV antibody VRC01	1.08
VRC34 (antibody)	1.78
